For this series, the target named is T1, PtpA (Mycobacterium tuberculosis) (UniProt P9WIA1).
T1 sequence: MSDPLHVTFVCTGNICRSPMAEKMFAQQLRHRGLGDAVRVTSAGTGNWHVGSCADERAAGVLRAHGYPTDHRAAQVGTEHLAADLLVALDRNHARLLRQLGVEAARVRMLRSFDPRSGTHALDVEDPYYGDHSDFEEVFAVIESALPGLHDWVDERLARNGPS
Briefly: competition. As to conditions: EMSA: 10 ug PtpA, 10 nM biotin-labeled DNA, Beyotime GS009 binding buffer (salt, pH not stated), 20 min, room temperature, 15% native PAGE. A general note: Mobility shift assays separate free from complexed probe on a gel.

As for “CCTTAAAACAAAAGACATGAAAAGATAATAAGAAAAAAGTGCCGCAACTATTATAGAAAAACACTTGGCAGCCTGCTTCAGCCCAAGCTGAGGCCACCTCTAGCCTCTGCTAAAGCCCCCCACTCCCAATGGTCCCCGCCAACCGGATAA (double strand) [GADD45A promoter -250 to -100, unlabeled negative competitor]”, the binding result is on record as “no binding”.

These data come from article PMC5557760.
